In data set [1] the test system is MS2 coat protein. The experiment in a line: apparent KD of MS2 coat protein, switch OFF state (with FMN for OFF switches, without FMN for ON switches); designed switch direction (-1 OFF switch, 1 ON switch): -1; higher = weaker reporter binding. Conditions: FMN input: 0 or 200 uM; Eterna round: R93 (includes R88 designs). The procedure, abridged:
(§1)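 Each design's apparent KD comes from the median of binding-curve fits to its normalised clusters. Those clusters carried RNA switches transcribed on-chip from Illumina sequencing clusters. SNAP-549-labelled MS2 coat protein was titrated onto them in twofold steps (0.7 or 1.5 nM to 3 µM; per step 0.8–1.5 h down to 10–20 min). Conditions were 100 mM Tris-HCl pH 7.5, 80 mM KCl, 4 mM MgCl2, without or with constant ligand.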

Data set [2] relates to MS2 coat protein. The experiment in a line: apparent KD of MS2 coat protein, switch ON state; designed switch direction (-1 OFF switch, 1 ON switch): -1; higher = weaker reporter binding. The conditions noted are these: FMN input: 0 or 200 uM; Eterna round: R93 (includes R88 designs). The essentials: as §1

As to “AAAAAACAUGAGGAUCACCCAUGUGAGGAUAUCCAAAAGAAAAGAAAAGAAAGAAGAAGGAGAAGGCACAAGAA [Khufu]”, the “apparent KD of MS2 coat protein” value with MS2 coat protein [1] worked out at 0.0479 µM; in the data set with MS2 coat protein [2] it was 0.0552 µM.

Consider “AAAAAACAUGAGGAUCACCCAUGUGAGGAUAUCCAAAAGUUAAAUAAAAAGACGAAAAGGAGAAGGCGCAAAAA [Mat - Mod of Eli]”, for which the figures for the “apparent KD of MS2 coat protein” value in the data set on MS2 coat protein [1] and in the data set on MS2 coat protein [2] were 0.0394 µM and 0.0649 µM, respectively.

“AAAAAACAUGAGGAUCACCCAUGUGAGGAUAUCCUAAACAAAAAAAACAAAAACAAAUGGAGAAGGCACAAAAA [Amethyst 35]”: the “apparent KD of MS2 coat protein” value in the data set on MS2 coat protein [1] worked out at 0.126 µM; in the data set with MS2 coat protein [2] it was 0.105 µM.

Turning to “AAAAAACAUGAGGAUCACCCAUGUGAGGAUAUCGGAGGAGGAGGAGGAGGAGGAGGAGCGAGAAGGUACAAAAA [salish99-Ex1-04]”, the “apparent KD of MS2 coat protein” value is 0.0315 µM in the data set on MS2 coat protein [1] and 0.0144 µM in the data set on MS2 coat protein [2].

As for “AAAAAACAUGAGGAUCACCCAUGUGAGGAUAUCUAAAACAAAACAAAAACAAAACAAAGGAGAAGGUAUAUGAA [Amethyst 67]”, the “apparent KD of MS2 coat protein” value with MS2 coat protein [1] came to 0.0292 µM; with MS2 coat protein [2], 0.019 µM.

Take “AAAAAACAUGAGGAUCACCCAUGUGAGGAUAUCUGUAUUCAAUCCUCGGAUUGAAUACAGAGAAGGCACAUGGA [Ex1: 610]”: the entries for the “apparent KD of MS2 coat protein” value in the data set on MS2 coat protein [1] and with MS2 coat protein [2] were 0.0138 µM and 0.0464 µM, respectively.

For “AAAAAACAUGAGGAUCACCCAUGUGAGGAUAUGACGUAAAUAAAGAAAGAAUAAAUCGUCAGAAGGCACAAAAA [Mat - Exclusion 1 - Eli mod - D72]”, the “apparent KD of MS2 coat protein” value with MS2 coat protein [1] was found to be 0.0403 µM; with MS2 coat protein [2], 0.0314 µM.

“AAAAAACAUGAGGAUCACCCAUGUGAGGAUAUGAUGCGAAUAAAGAAAGAAGAAAGCAUCAGAAGGCACAAAAA [58%, Disencluded 3, 2]”: the “apparent KD of MS2 coat protein” value was determined as 0.0435 µM in the data set on MS2 coat protein [1] and 0.0258 µM in the data set with MS2 coat protein [2].

Take “AAAAAACAUGAGGAUCACCCAUGUGAGGAUAUGAUGCGAAUAAAGAAAGAAUAAAGCAUCAGAAGGCACACCAA [Mat - Exclusion 1 - Eli mod - D61]”: the “apparent KD of MS2 coat protein” value with MS2 coat protein [1] was found to be 0.0487 µM; in the data set with MS2 coat protein [2], 0.0279 µM.

“AAAAAACAUGAGGAUCACCCAUGUGAGGAUAUGCAAAACCCAUAUAAAAAGGGAAAAAGCAGAAGGUACAAAAA [Starry Exclusion 1.2 (wbt round 1 mod)]”: the entries for the “apparent KD of MS2 coat protein” value with MS2 coat protein [1] and with MS2 coat protein [2] were 0.0213 µM and 0.0207 µM, respectively.

As for “AAAAAACAUGAGGAUCACCCAUGUGAGGAUAUGCGAAAAUAAAAUAAAUAAAUAAAAAGCAGAAGGCACACCAA [Mat - Exclusion 1 - Eli mod - D60]”, the “apparent KD of MS2 coat protein” value is 0.0411 µM with MS2 coat protein [1] and 0.0253 µM in the data set on MS2 coat protein [2].

Take “AAAAAACAUGAGGAUCACCCAUGUGAGGAUAUGCUAAAAAAAUCCGCAUAAAAAAAUAGCAGAAGGCACAUAAA [PK1]”: the “apparent KD of MS2 coat protein” value is 0.0441 µM in the data set with MS2 coat protein [1] and 0.025 µM with MS2 coat protein [2].

For “AAAAAACAUGAGGAUCACCCAUGUGAGGAUAUGGAAAGAAAAAAAAAGAAAGAAAAAACCAGAAGGCACAAAAA [Amethyst 30]”, the entries for the “apparent KD of MS2 coat protein” value in the data set on MS2 coat protein [1] and in the data set with MS2 coat protein [2] were 0.0238 µM and 0.0428 µM, respectively.

With “AAAAAACAUGAGGAUCACCCAUGUGAGGAUAUUGGUAUUCAAGAUAUAAUCUUAAUAGCGAGAAGGCGCAAAAA [Brourd 613 Mod 17 - Jieux - Exclusion 1]”, the “apparent KD of MS2 coat protein” value amounted to 0.0219 µM in the data set with MS2 coat protein [1] and 0.0241 µM in the data set with MS2 coat protein [2].

Take “AAAAAACAUGAGGAUCACCCAUGUGAGGAUAUUGGUAUUCAGGAUAUAAUCUCAAUAGCGAGAAGGCGCAUAAA [Brourd 613 Mod 16 - Jieux - Exclusion 1]”: the “apparent KD of MS2 coat protein” value in the data set on MS2 coat protein [1] worked out at 0.0181 µM; in the data set on MS2 coat protein [2], 0.0209 µM.

For the sequence “AAAAAACGAGGAUAUACAAAAACAAAAGGAACAAAAUACAAACAUGAGGAUCACCCAUGUAGAAGGCGUAAAAA [Default title]”, the results for the “apparent KD of MS2 coat protein” value in the data set on MS2 coat protein [1] and in the data set with MS2 coat protein [2] were 0.0235 µM and 0.0295 µM, respectively.

For “AAAAAAGGAGGAUAUACGAACAUGUCAAAAGACGUGAAGGGACAUGAGGAUCACCCAUGUAGAAGGUUUAAAAA [JL Wide Open 32]”, the “apparent KD of MS2 coat protein” value in the data set on MS2 coat protein [1] worked out at 0.015 µM; in the data set on MS2 coat protein [2] it was 0.048 µM.

Regarding “AAAAAAUGAGGAUAUACAUGAAAAAAAAAAAAAAAAAAAAAACAUGAGGAUCACCCAUGUAGAAGGCGUAAAAA [Flexi GU!]”, the figures for the “apparent KD of MS2 coat protein” value in the data set on MS2 coat protein [1] and with MS2 coat protein [2] were 0.029 µM and 0.0398 µM, respectively.

For “AAAAACGUAGGAUAUACAUGAGGAUCACCCAUGUAAAAAAAAAAGGGAGAAAAAAGAAGUAGAAGGACGAAAAA [JR_Exc003_Sub002]”, the “apparent KD of MS2 coat protein” value in the data set on MS2 coat protein [1] came out at 0.0271 µM; with MS2 coat protein [2], 0.0324 µM.

For “AAAAAGAAAGGAUAUACGAACAUGUCGAAAGACGUGAAGGGACAUGAGGAUCACCCAUGUAGAAGGUUUAAAAA [Mat - Exclusion 2 - JL mod - D82]”, the “apparent KD of MS2 coat protein” value in the data set on MS2 coat protein [1] amounted to 0.0179 µM; with MS2 coat protein [2], 0.0252 µM.

“AAAAAGACAGGAUAUACAUGAAAAAAAAAAAAAAAAAAAAAACAUGAGGAUCACCCAUGUAGAAGGGUCAAAAA [Starry's Exclusion 2]”: the “apparent KD of MS2 coat protein” value in the data set on MS2 coat protein [1] amounted to 0.0546 µM; in the data set on MS2 coat protein [2], 0.0716 µM.

As for “AAAAAGAGAGGAUAUACAGGAGGACCACCACAAAAAAAAAUACAUGAGGAUCACCCAUGUAGAAGGCUCAAAAA [Default title]”, the “apparent KD of MS2 coat protein” value is 0.0661 µM in the data set on MS2 coat protein [1] and 0.0351 µM in the data set with MS2 coat protein [2].

Turning to “AAAAAGAUAGGAUAUACGUACAUGUCGAAAGACGUGAAGGGACAUGAGGAUCACCCAUGUAGAAGGAUUAAAAA [Mat - Exclusion 2 - JL mod - D90]”, the “apparent KD of MS2 coat protein” value with MS2 coat protein [1] was determined as 0.0145 µM; with MS2 coat protein [2], 0.0438 µM.

With “AAAAAGCGAGGAUAUACAUGAGGAUCACCCAUGUCAAACGGUAAGACCGCAGGAAAAAGUAGAAGGCGCAAAAA [Exclusion3-02]”, the “apparent KD of MS2 coat protein” value in the data set with MS2 coat protein [1] worked out at 0.0968 µM; with MS2 coat protein [2] it was 0.0659 µM.

For “AAAAAGCGAGGAUAUACAUGAGGAUCACCCAUGUGAAAAAAAAAAUAAUAAAUAAAAGGUAGAAGGCGCAAAAA [V1]”, the “apparent KD of MS2 coat protein” value with MS2 coat protein [1] was 0.0879 µM; with MS2 coat protein [2], 0.072 µM.

Regarding “AAAAAGCUAGGAUAUACGAAAAAAAAGGGUAAAAUAAAUAAACAUGAGGAUCACCCAUGUAGAAGGAGCAAAAA [Mat - Exclusion 2 - Tesla mod - D37]”, the “apparent KD of MS2 coat protein” value in the data set on MS2 coat protein [1] was 0.0383 µM; in the data set on MS2 coat protein [2], 0.0426 µM.

Take “AAAAAGGAAGGAUAUACGAACAUGUCAAAAGACGUGAAGGGACAUGAGGAUCACCCAUGUAGAAGGUUUAAAAA [JL Wide Open 25]”: the “apparent KD of MS2 coat protein” value in the data set with MS2 coat protein [1] is 0.0186 µM; in the data set on MS2 coat protein [2], 0.0393 µM.

Take “AAAAAGGAAGGAUAUACGAACAUGUCGAAAGACGUGAAGGGACAUGAGGAUCACCCAUGUAGAAGGUCCAAAAA [Mat - Exclusion 2 - JL mod - D79]”: the “apparent KD of MS2 coat protein” value stood at 0.0458 µM in the data set on MS2 coat protein [1] and 0.0472 µM with MS2 coat protein [2].

Consider “AAAAAGGCAGGAUAUACAUGAGGAUCACCCAUGUAAAAAAAAAAAAAGGGAAAAAAAAGUAGAAGGGCCAAAAA [Khamudi]”, for which the “apparent KD of MS2 coat protein” value amounted to 0.0485 µM in the data set with MS2 coat protein [1] and 0.0358 µM in the data set with MS2 coat protein [2].

As to “AAAAAGGCAGGAUAUACGAACAUGUCAAAAGACGUGAAGGGACAUGAGGAUCACCCAUGUAGAAGGGUCAAGAA [JL Stem Breaker 18]”, the “apparent KD of MS2 coat protein” value is 0.0521 µM with MS2 coat protein [1] and 0.218 µM with MS2 coat protein [2].

Values taken from the supplement of paper PMC9170038.
